# In IntAct's records for PubMed 20577264:
# B1: G2 and S phase-expressed protein 1 (Homo sapiens), Q9NYZ3 (parent)
# chain: MEGGGGRDEPSACRAGDVNMDDPKKEDILLLADEKFDFDLSLSSSSANEDDEVFFGPFGHKERCIAASLELNNPVPEQPPLPTSESPFAWSPLAGEKFVEVYKEAHLLALHIESSSRNQAAQAAKPEDPRSQGVERFIQESKLKINLFEKEKEMKKSPTSLKRETYYLSDSPLLGPPVGEPRLLASSPALPSSGAQARLTRAPGPPHSAHALPRESCTAHAASQAATQRKPGTKLLLPRAASVRGRSIPGAAEKPKKEIPASPSRTKIPAEKESHRDVLPDKPAPGAVNVPAAGSHLGQGKRAIPVPNKLGLKKTLLKAPGSTSNLARKSSSGPVWSGASSACTSPAVGKAKSSEFASIPANSSRPLSNISKSGRMGPAMLRPALPAGPVGASSWQAKRVDVSELAAEQLTAPPSASPTQPQTPEGGGQWLNSSCAWSESSQLNKTRSIRRRDSCLNSKTKVMPTPTNQFKIPKFSIGDSPDSSTPKLSRAQRPQSCTSVGRVTVHSTPVRRSSGPAPQSLLSAWRVSALPTPASRRCSGLPPMTPKTMPRAVGSPLCVPARRRSSEPRKNSAMRTEPTRESNRKTDSRLVDVSPDRGSPPSRVPQALNFSPEESDSTFSKSTATEVAREEAKPGGDAAPSEALLVDIKLEPLAVTPDAASQPLIDLPLIDFCDTPEAHVAVGSESRPLIDLMTNTPDMNKNVAKPSPVVGQLIDLSSPLIQLSPEADKENVDSPLLKF
# Variants of: B1
# Settings: with plk1_human PLK1, P53350
# Sequence of plk1_human PLK1, P53350 (P53350 whole entry): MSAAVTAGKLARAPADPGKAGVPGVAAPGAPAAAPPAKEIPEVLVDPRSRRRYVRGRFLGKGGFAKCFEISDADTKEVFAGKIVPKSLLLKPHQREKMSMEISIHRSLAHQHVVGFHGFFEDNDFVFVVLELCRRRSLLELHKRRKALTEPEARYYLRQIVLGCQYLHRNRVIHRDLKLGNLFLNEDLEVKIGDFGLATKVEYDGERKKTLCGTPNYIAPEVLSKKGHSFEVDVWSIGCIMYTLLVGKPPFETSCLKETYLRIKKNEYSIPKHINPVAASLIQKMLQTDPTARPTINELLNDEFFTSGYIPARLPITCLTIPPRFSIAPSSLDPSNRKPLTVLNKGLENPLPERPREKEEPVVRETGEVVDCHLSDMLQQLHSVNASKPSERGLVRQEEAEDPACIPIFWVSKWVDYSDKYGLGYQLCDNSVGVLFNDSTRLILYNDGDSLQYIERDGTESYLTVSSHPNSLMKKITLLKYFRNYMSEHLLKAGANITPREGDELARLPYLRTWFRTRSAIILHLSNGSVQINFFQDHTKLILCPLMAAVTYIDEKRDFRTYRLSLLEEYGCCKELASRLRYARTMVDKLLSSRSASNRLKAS
row,Variant,effect of a mutation on the interaction
1,S454A,disrupting interaction

# Variants of: B1
# Settings: with plk1_human PLK1, P53350
# Remark: another data set of the same source
row,Variant,effect of a mutation on the interaction
1,S242A,disrupting interaction
